Assay results reported in patent publication US20250243262A1.

How the values were obtained:
[1] = target: rPcrV protein (recombinant Pseudomonas PcrV) (Pseudomonas aeruginosa); assay: SPR (Bio-Rad ProteOn XPR36); antibody captured, rPcrV as analyte; table under the sensorgram
[2] = target: rPcrV protein (recombinant Pseudomonas PcrV) (Pseudomonas aeruginosa); assay: SPR (Bio-Rad ProteOn XPR36); antibody captured on GLC sensor chip with anti-human IgG, rPcrV injected at multiple concentrations

Kd [1]: 0.143 nM | koff [1]: 0.000116 s⁻¹ | kon [1]: 808000 M⁻¹ s⁻¹ | Kd [2]: 0.143 nM | koff [2]: 0.000116 s⁻¹ | kon [2]: 808000 M⁻¹ s⁻¹
B1: V2L2-GL (V2L2-germlined mAb) (antibody, V domains shown)
VH: EVQLLESGGGLVQPGGSLRLSCAASGFTFSSYAMNWVRQAPGKGLEWVSAITISGITAYYTDSVKGRFTISRDNSKNTLYLQMNSLRAEDTAVYYCAKEEFLPGTHYYYGMDVWGQGTTVTVSS
VL: AIQMTQSPSSLSASVGDRVTITCRASQGIRNDLGWYQQKPGKAPKLVIYSASTLQSGVPSRFSGSGSGTDFTLSISSLQPDDFATYYCLQDYNYPWTFGQGTKVEIK
